Assay results published in article PMC10164912, “Exploration of O-GlcNAc transferase glycosylation sites reveals a target sequence compositional bias” (The Journal of Biological Chemistry, 2023).

T1: TPR region of OGT (OGT-TPR, aa 2-474) not fused to SUMO (human, UniProt O15294 2-474)
T1 construct: O-GlcNAc transferase (OGT), human ncOGT (longest isoform, 1-1046, 13 TPR repeats), tetratricopeptide repeat region, residues 2-474; Unlabelled; this was not measured here; also called OGT-TPR with the SUMO tag removed
T1 sequence (looked up): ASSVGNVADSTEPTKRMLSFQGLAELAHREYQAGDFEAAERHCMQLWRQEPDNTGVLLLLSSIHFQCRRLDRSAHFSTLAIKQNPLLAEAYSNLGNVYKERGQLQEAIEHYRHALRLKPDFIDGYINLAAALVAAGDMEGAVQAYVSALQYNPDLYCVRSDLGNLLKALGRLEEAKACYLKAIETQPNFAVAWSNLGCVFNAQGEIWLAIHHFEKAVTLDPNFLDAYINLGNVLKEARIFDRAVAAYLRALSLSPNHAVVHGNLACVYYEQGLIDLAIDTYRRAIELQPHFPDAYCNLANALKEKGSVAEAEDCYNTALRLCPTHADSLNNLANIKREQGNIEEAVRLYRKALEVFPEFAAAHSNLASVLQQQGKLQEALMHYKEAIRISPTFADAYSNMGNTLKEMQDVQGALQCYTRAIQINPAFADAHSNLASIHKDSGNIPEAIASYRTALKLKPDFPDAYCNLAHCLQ

B1: Mut-F FUS N-terminal low-complexity region (LCRN), aa 1-214 (domain or fragment, human, UniProt P35637 1-214, looked up)
chain: MASNDYTQQATQSYGAYPTQPGQGYSQQSSTPYAQASYSTYSPSTTTSAYGQSSYSSYGQSQNTGYATTSTPQAYPSTAPYATSPSSQSSYGQQSSYPAYTQQPAPTTTSASYATSSQSSSYGQPQSGSYSQQPSYGGQQQSYGQQQSYNPPQGYGQQNQYNSSSGGGGGGGGGGNYGQDQSSMSSGGGSGGGYGNQDQSGGGGSGGYGQQDRG
notes: FUS (fused in sarcoma), human, N-terminal low-complexity region, aa 1-214, with the combined mutations of Mut-A, Mut-B and Mut-C; 15N-labelled for NMR; also called FUS Mut-F; Mut-F FUS LCRN
B2: WT FUS N-terminal low-complexity region (LCRN), aa 1-214 (domain or fragment, human, UniProt P35637 1-214, looked up)
chain: MASNDYTQQATQSYGAYPTQPGQGYSQQSSQPYGQQSYSGYSQSTDTSGYGQSSYSSYGQSQNTGYGTQSTPQGYGSTGGYGSSQSSQSSYGQQSSYPGYGQQPAPSSTSGSYGSSSQSSSYGQPQSGSYSQQPSYGGQQQSYGQQQSYNPPQGYGQQNQYNSSSGGGGGGGGGGNYGQDQSSMSSGGGSGGGYGNQDQSGGGGSGGYGQQDRG
notes: FUS (fused in sarcoma), human, N-terminal low-complexity region, aa 1-214; 15N-labelled for NMR; also called WT FUS LCRN; FUS LCRN
B3: TPR region of OGT (OGT-TPR, aa 2-474) fused to a SUMO tag (domain or fragment, human, UniProt O15294 2-474, looked up)
chain: T1 sequence (looked up)
notes: O-GlcNAc transferase (OGT), human ncOGT (longest isoform, 1-1046, 13 TPR repeats), tetratricopeptide repeat region, residues 2-474; Unlabelled; this was not measured here; also called SUMO-OGT-TPR; SUMO-fused OGT-TPR

What was measured:
Conditions in all cases: both partners purified
[1] = biological target: T1, TPR region of OGT (OGT-TPR, aa 2-474) …; assay: NMR titration; 1H-15N HSQC of 15N-labelled FUS LCRN (WT or Mut-F) without and with OGT-TPR whose SUMO tag was removed; the samples with OGT-TPR phase separated, no quantitative comparison
[2] = biological target: B1; assay: NMR titration; 1H-15N HSQC of 20 uM 15N-labelled FUS LCRN (WT or Mut-F) without and with 32 uM unlabelled SUMO-OGT-TPR; 600 MHz, 5 °C, 40 mM KPO4, 125 mM NaCl, 0.5 mM EDTA, 0.5 mM benzamidine, 5 mM DTT, 10% D2O, pH 7.2; peak intensity ratios plus OGT-TPR/apo
[3] = biological target: B2; assay: as above

binding result [1]	average peak intensity ratio (plus OGT-TPR/apo) [2]	average peak intensity ratio (plus OGT-TPR/apo) [3]	Binder
binds			B1
binds			B2
	0.36 ± 0.22	0.48	B3
